Measurements published in US9909146B2, “Production of alkenes by enzymatic decarboxylation of 3-hydroxyalkanoic acids” (priority 2008, dated 2018).

How the values were obtained:
[1] = target: T1, enzyme SEQ ID NO: 6 (MDP decarboxylase) (Picrophilus torridus, UniProt Q6KZB1); assay: Effect of ATP co-substrate and Mg2+ cofactor on IBN production by enzyme SEQ ID NO: 6; format: biochemical; details: 1 mg/ml enzyme, 72 h at 30° C.
T1 construct: 6-Histidine tag (N); made in house; host or cells: E. coli BL21(DE3)
T1 sequence (Q6KZB1 1-324): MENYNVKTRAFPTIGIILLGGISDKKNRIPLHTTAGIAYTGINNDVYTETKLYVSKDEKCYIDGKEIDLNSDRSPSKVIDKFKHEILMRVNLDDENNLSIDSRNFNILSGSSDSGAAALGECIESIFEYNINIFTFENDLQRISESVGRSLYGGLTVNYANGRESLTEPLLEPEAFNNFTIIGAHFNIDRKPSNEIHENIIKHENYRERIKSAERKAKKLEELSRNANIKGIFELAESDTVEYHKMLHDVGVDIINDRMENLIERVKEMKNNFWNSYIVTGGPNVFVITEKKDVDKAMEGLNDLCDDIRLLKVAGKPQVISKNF
Experimental: Effect of ATP Co-Substrate
(§1) 200 mM HIV (to be specified)
(§2) Incubation 72 h at 30° C.
Other molecules, and in particular those containing a phosphoanhydride bond, could also be efficient co-substrates for the enzyme.
Other ions, and in particular other divalent ions, could be used as cofactor in place of or in addition to Mg^2+ ions.

[2] = target: T2, MDP decarboxylase of Saccharomyces cerevisiae (Saccharomyces cerevisiae, UniProt P32377); assay: Activity of protein extract (S. cerevisiae MDP decarboxylase) towards 3-hydroxy-3-methylbutyrate, with or without cofactor; format: biochemical
T2 construct: made in house; host or cells: E. coli BL21
T2 sequence (P32377 1-396): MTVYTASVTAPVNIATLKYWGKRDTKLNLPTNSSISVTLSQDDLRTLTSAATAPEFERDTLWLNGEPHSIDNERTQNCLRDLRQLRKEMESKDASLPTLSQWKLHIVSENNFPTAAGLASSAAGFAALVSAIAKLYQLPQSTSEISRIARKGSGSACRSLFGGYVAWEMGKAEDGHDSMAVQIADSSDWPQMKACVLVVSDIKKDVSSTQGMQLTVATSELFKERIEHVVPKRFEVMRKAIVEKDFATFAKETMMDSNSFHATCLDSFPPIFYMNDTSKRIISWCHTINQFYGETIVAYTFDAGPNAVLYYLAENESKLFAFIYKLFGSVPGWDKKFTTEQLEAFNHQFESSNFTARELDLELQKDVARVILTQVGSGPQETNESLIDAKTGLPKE
Experimental: The gene encoding MDP decarboxylase of Saccharomyces cerevisiae is synthesized from overlapping oligonucleotides and cloned in a pET plasmid (Novagen) allowing expression in bacteria. Said plasmid is then transformed by electroporation into bacterial strain BL21 (Invitrogen). The bacteria are streaked on a Petri dish containing ampicillin and incubated at 37° C. The next day, a bacterial colony is randomly selected and used to inoculate 50 ml of LB medium containing ampicillin. The culture is incubated for 24 h while shaking, after which the culture is centrifuged, the bacteria lysed by sonication, and a total protein extract prepared. An aliquot of the extract is loaded on an electrophoresis gel together with a protein extract from the same strain which has not been transformed, and with molecular weight markers. […]
Vials are sealed with a septum and crimped. […] After incubation, a gas syringe is used to collect the gas present in each vial, and the CO2 concentration in the samples is measured by gas chromatography. […] The presence of isobutylene in the gas sample from vial 6 is then measured by gas chromatography with infrared or flame ionization detection. […]
As in the previous example, isobutylene formation is measured by gas chromatography with infrared or flame ionization detection.

[3] = target: T1, enzyme SEQ ID NO: 6 (MDP decarboxylase); assay: Substrate range test, Km of enzyme SEQ ID NO: 6 for HIV; format: biochemical; details: previously described conditions, incubation at 50° C., read-out: Km of the enzyme / affinity for HIV
Experimental: FIG. 13: IBN production according to concentration of HIV substrate.
A substrate range was tested in the previously described conditions, with incubation at 50° C. The Km of the enzyme is approximately 40 mM HIV.

[4] = Conversion of HIV to isobutylene (IBN) by purified enzyme SEQ ID NO: 6, GC measurement; format: biochemical, Picrophilus torridus
Experimental: The recombinant enzyme was purified as described in example 4.
The activity of the isolated enzyme was confirmed. The reaction was carried out in the following conditions:
After 72 h incubation at 30° C., the signal was measured by GC/MS. In the presence of the enzyme, IBN production was increased here by approximately 2.3-fold over background noise. The background noise observed here is in agreement with the organic chemistry literature, showing that in aqueous solution and at a temperature of around 100° C., 3-hydroxyisovaleric acid slowly decarboxylates to tert-butanol, which is partially dehydrated to isobutylene, following an equilibrium favorable to the formation of tert-butanol (Pressman and Luca, J. Am. Chem. Soc. 1940).
Enzymatic Activity According to Temperature
as §1
Incubation 72 h at different temperatures.
as §2
Optimal conditions were obtained with a pH of 5.5 in 100 mM citrate.
Optimization of Reaction Conditions
Optimum reaction conditions were sought, and the following conditions were retained:
Incubation 48 h at 50° C.

[5] = Screening of a library of 63 MDP decarboxylase family enzymes for activity on HIV; format: biochemical; details: 200 mM HIV, 10 mM ATP, pH 5.5 or 7.0, 37° C. for 72 h, GC/MS
Source text: A library of 63 genes encoding enzymes from the MDP decarboxylase family was obtained and tested for activity on HIV as substrate.
The genes encoding the mevalonate diphosphate (MDP) decarboxylase family EC 4.1.1.33 were cloned in the pET 25b vector (Novagen) in the case of eukaryotic genes and pET 22b (Novagen) for genes of prokaryotic origin, with a 6-Histidine tag at the N-terminal end immediately after the methionine initiation codon. Competent E. coli BL21(DE3) cells (Novagen) were transformed with these vectors by heat shock. The cells were grown with shaking (160 rpm) at 30° C. in TB medium containing 0.5 M sorbitol, 5 mM betain, 100 μg/ml ampicillin until reaching an OD at 600 nm comprised between 0.8 and 1. Isopropyl-B-D-thiogalactopyranoside (IPTG) was then added to a final concentration of 1 mM and protein expression was continued at 20° C. overnight (approximately 16 h). The cells were collected by centrifugation at 4° C., 10,000 rpm for 20 min and the pellets were frozen at −80° C. […]
The clarified bacterial lysates were loaded on a PROTINO-1000 Ni-IDA column (Macherey-Nagel) allowing adsorption of 6-His tag proteins. […] Protein was quantified by the Bradford method. […]
The gas present above the reactions was collected with a syringe equipped with a no-return mechanism. The gas sample was analyzed by gas chromatography (GC) coupled with mass spectrometry (MS). […]

Molecule: Nc1ncnc2c1ncn2[C@@H]1O[C@H](COP(=O)(O)OP(=O)(O)OP(=O)(O)O)[C@@H](O)[C@H]1O [ATP]
- enzyme activity (IBN production) in presence and absence of ATP ([1]; 0 or 10 mM ATP, 100 mM citrate pH 5.5, 200 mM HIV): only observed in the presence

Molecule: CC(C)(O)CC(=O)O [HIV, 3-hydroxy-3-methylbutyrate]
- reaction of the enzyme preparation (CO2 detected by gas chromatography) ([2]; vial 6, 5 mM ATP, 10 mM MgCl2, 37° C., 4 hours to 3 days): significant reaction
- Km [3]: ~40 mM

Molecule: [Mg+2] [Mg^2+]
- enzyme activity (IBN production) in presence and absence of Mg2+ ([1]; 0 or 5 mM MgCl2, 100 mM citrate pH 5.5, 10 mM ATP, 200 mM HIV): improved

Molecule: CCOP(=O)(O)OP(=O)(O)O [ethyl diphosphate, reference compound]
- amount of isobutylene produced over time with cofactor ([2]; 10 μl of 10 mg/l ethyl diphosphate added to 3-hydroxy-3-methylbutyrate reaction): markedly higher

B1: Candidate 10: purified decarboxylase enzyme of SEQ ID NO: 6 from Picrophilus torridus, Q6KZB1, N-terminal His tag (protein)
chain: T1 sequence (Q6KZB1 1-324)
modifications: N-terminal His tag
- IBN production in presence of enzyme over background noise ([4]; 100 mM Tris-HCl, 10 mM MgCl2, 10 mM ATP, 20 mM KCl, pH 6.0, 3 mg/ml enzyme, 72 h at 30° C., GC/MS): approximately 2.3 fold
- temperature optimum of enzymatic activity ([4]; 100 mM buffer, 50 mM KCl, 10 mM ATP, 200 mM HIV, 1 mg/ml enzyme, 72 h at different temperatures): approximately 50 °C
- optimal pH of enzymatic activity ([4]; 100 mM citrate, 50 mM KCl, 10 mM ATP, 200 mM HIV, 1 mg/ml enzyme, 72 h at 30° C.): 5.5
- signal-to-noise ratio (measured in the absence of enzyme) for the conversion yield ([4]; in some conditions, example 5): approximately 100 fold
- ratio of the signal over background noise ([4]; optimized: 100 mM citrate, 50 mM KCl, 40 mM ATP, 200 mM HIV, 1 mg/ml enzyme, 48 h at 50° C., GC-FID): approximately 100
- level of isobutylene (IBN) production in library screening [5]: highest levels
